Test results from the supplement of paper PMC11246515.
± gives the standard deviation of the averaged measurements.

Experiment: total protein half-life in vivo (active degradation + dilution); higher = more stable protein
[1] = E. coli NCM3722 delta-clpP delta-lon delta-hslV, growth: N-lim chemostat, doubling time 6 h
[2] = E. coli NCM3722 delta-clpP, growth: N-lim chemostat, doubling time 6 h
[3] = E. coli NCM3722 delta-hslV, growth: N-lim chemostat, doubling time 6 h
[4] = E. coli NCM3722 delta-lon, growth: N-lim chemostat, doubling time 6 h
[5] = E. coli NCM3722 delta-smpB, growth: N-lim chemostat, doubling time 6 h
[6] = wild type E. coli NCM3722, growth: C-lim chemostat, doubling time 3 h
[7] = wild type E. coli NCM3722, growth: C-lim chemostat, doubling time 6 h
[8] = wild type E. coli NCM3722, growth: C-lim chemostat, doubling time 12 h
[9] = wild type E. coli NCM3722, growth: N-lim chemostat, doubling time 6 h
[10] = wild type E. coli NCM3722, growth: N-lim chemostat, doubling time 12 h
[11] = wild type E. coli NCM3722, growth: P-lim chemostat, doubling time 6 h
[12] = wild type E. coli NCM3722, growth: P-lim chemostat, doubling time 12 h

Sequence	total protein half-life in vivo [1] [h]	total protein half-life in vivo [2] [h]	total protein half-life in vivo [3] [h]	total protein half-life in vivo [4] [h]	total protein half-life in vivo [5] [h]	total protein half-life in vivo [6] [h]	total protein half-life in vivo [7] [h]	total protein half-life in vivo [8] [h]	total protein half-life in vivo [9] [h]	total protein half-life in vivo [10] [h]	total protein half-life in vivo [11] [h]	total protein half-life in vivo [12] [h]
MQKKSIYVAYTGGTIGMQRSEQGYIPVSGHLQRQLALMPEFHRPEMPDFTIHEYTPLMDSSDMTPEDWQHIAEDIKAHYDDYDGFVILHGTDTMAYTASALSFMLENLGKPVIVTGSQIPLAELRSDGQINLLNALYVAANYPINEVTLFFNNRLYRGNRTTKAHADGFDAFASPNLPPLLEAGIHIRRLNTPPAPHGEGELIVHPITPQPIGVVTIYPGISADVVRNFLRQPVKALILRSYGVGNAPQNKAFLQELQEASDRGIVVVNLTQCMSGKVNMGGYATGNALAHAGVIGGADMTVEATLTKLHYLLSQELDTETIRKAMSQNLRGELTPDD [P0A962]	5.54 ± 0.6	5.31 ± 0.36	6.03 ± 0.21	5.69 ± 0.17	5 ± 0.11	3.18 ± 0.034	5.81 ± 0.83	12 ± 1.2	5.74 ± 0.28	10.9 ± 0.4	5.81 ± 0.6	11.5 ± 1.4
MSEQHAQGADAVVDLNNELKTRREKLANLREQGIAFPNDFRRDHTSDQLHAEFDGKENEELEALNIEVAVAGRMMTRRIMGKASFVTLQDVGGRIQLYVARDDLPEGVYNEQFKKWDLGDILGAKGKLFKTKTGELSIHCTELRLLTKALRPLPDKFHGLQDQEARYRQRYLDLISNDESRNTFKVRSQILSGIRQFMVNRGFMEVETPMMQVIPGGAAARPFITHHNALDLDMYLRIAPELYLKRLVVGGFERVFEINRNFRNEGISVRHNPEFTMMELYMAYADYKDLIELTESLFRTLAQDILGKTEVTYGDVTLDFGKPFEKLTMREAIKKYRPETDMADLDNFDSAKAIAESIGIHVEKSWGLGRIVTEIFEEVAEAHLIQPTFITEYPAEVSPLARRNDVNPEITDRFEFFIGGREIGNGFSELNDAEDQAQRFLDQVAAKDAGDDEAMFYDEDYVTALEHGLPPTAGLGIGIDRMVMLFTNSHTIRDVILFPAMRPVK [P0A8N3]	5.76 ± 0.38	5.45 ± 0.16	5.23 ± 0.14	5.58 ± 0.26	5.19 ± 0.12	3.07 ± 0.11	5.894 ± 0.022	10.3 ± 0.74	4.98 ± 0.45	8.8 ± 0.29	5.67 ± 0.29	10.6 ± 0.79
MSLDINQIALHQLIKRDEQNLELVLRDSLLEPTETVVEMVAELHRVYSAKNKAYGLFSEESELAQTLRLQRQGEEDFLAFSRAATGRLRDELAKYPFADGGFVLFCHYRYLAVEYLLVAVLSNLSSMRVNENLDINPTHYLDINHADIVARIDLTEWETNPESTRYLTFLKGRVGRKVADFFMDFLGASEGLNAKAQNRGLLQAVDDFTAEAQLDKAERQNVRQQVYSYCNEQLQAGEEIELKSLSKELAGVSEVSFTEFAAEKGYELEESFPADRSTLRQLTKFAGSGGGLTINFDAMLLGERIFWDPATDTLTIKGTPPNLRDQLQRRTSGGN	6.4 ± 0.28	6.91 ± 0.46	5.81 ± 0.19	5.78 ± 0.17	5.911 ± 0.055	3.22 ± 0.17	6.07 ± 0.17	10.4 ± 2.2	6.08 ± 0.28	12 ± 2.2	6.08 ± 0.094	12.7 ± 0.4
MNTLRIGLVSISDRASSGVYQDKGIPALEEWLTSALTTPFELETRLIPDEQAIIEQTLCELVDEMSCHLVLTTGGTGPARRDVTPDATLAVADREMPGFGEQMRQISLHFVPTAILSRQVGVIRKQALILNLPGQPKSIKETLEGVKDAEGNVVVHGIFASVPYCIQLLEGPYVETAPEVVAAFRPKSARRDVSE [P0AF03]	4.79 ± 0.77	4.24 ± 0.53	4.594 ± 0.04	5.05 ± 0.59	4.82 ± 0.54	2.8 ± 0.21	5.83 ± 0.49	9.32 ± 0.82	4.61 ± 0.27	8.09 ± 0.46	5.41 ± 0.4	11.3 ± 0.16
MESLLTLPLAGEARVRILQITDTHLFAQKHEALLGVNTWESYQAVLEAIRPHQHEFDLIVATGDLAQDQSSAAYQHFAEGIASFRAPCVWLPGNHDFQPAMYSALQDAGISPAKRVFIGEQWQILLLDSQVFGVPHGELSEFQLEWLERKLADAPERHTLLLLHHHPLPAGCSWLDQHSLRNAGELDTVLAKFPHVKYLLCGHIHQELDLDWNGRRLLATPSTCVQFKPHCSNFTLDTIAPGWRTLELHADGTLTTEVHRLADTRFQPDTASEGY [P0AEW4]	5.15 ± 0.77	4.65 ± 0.26	4.6 ± 0.28	4.98 ± 0.096	4.34 ± 0.65	2.948 ± 0.017	5.4 ± 0.74	11.6 ± 1.3	4.56 ± 0.88	8.5 ± 0.45	4.435 ± 0.035	8.69 ± 0.43
MKRSLLFSAVLCAASLTSVHAAQPITEPEFASDIVDRYADHIFYGSGATGMALVVIDGNQRVFRSYGETRPGNNVRPQLDSVVRIASLTKLMTSEMLVKLLDQGTVKLNDPLSKYAPPGARVPTYNGTPITLVNLATHTSALPREQPGGAAHRPVFVWPTREQRWKYLSTAKLKAAPGSQAAYSNLAFDLLADALANASGKPYTQLFEEQITRPLGMKDTTYTPSPDQCRRLMVAERGASPCNNTLAAIGSGGVYSTPGDMMRWMQQYLSSDFYQRSNQADRMQTLIYQRAQFTKVIGMDVPGKADALGLGWVYMAPKEGRPGIIQKTGGGGGFITYMAMIPQKNIGAFVVVTRSPLTRFKNMSDGINDLVTELSGNKPLVIPAS [P0AD70]	3.75 ± 0.98	2.49 ± 0.33	3.37 ± 0.26	3.68 ± 0.084	3.17 ± 0.11	1.96 ± 0.34	3.73 ± 0.71	5.69 ± 1.3	3.96 ± 1	5.33 ± 0.35	3.62 ± 0.42	6.14 ± 1.1
MKADNPFDLLLPAAMAKVAEEAGVYKATKHPLKTFYLAITAGVFISIAFVFYITATTGTGTMPFGMAKLVGGICFSLGLILCVVCGADLFTSTVLIVVAKASGRITWGQLAKNWLNVYFGNLVGALLFVLLMWLSGEYMTANGQWGLNVLQTADHKVHHTFIEAVCLGILANLMVCLAVWMSYSGRSLMDKAFIMVLPVAMFVASGFEHSIANMFMIPMGIVIRDFASPEFWTAVGSAPENFSHLTVMNFITDNLIPVTIGNIIGGGLLVGLTYWVIYLRENDHH [P0AC23]	6.43 ± 0.36	7.27 ± 0.55		5.87 ± 0.32	6.66 ± 1.2	3.67			6.07 ± 0.59	11.5 ± 0.42	6.402 ± 0.033	
MSTLEQTIGNTPLVKLQRMGPDNGSEVWLKLEGNNPAGSVKDRAALSMIVEAEKRGEIKPGDVLIEATSGNTGIALAMIAALKGYRMKLLMPDNMSQERRAAMRAYGAELILVTKEQGMEGARDLALEMANRGEGKLLDQFNNPDNPYAHYTTTGPEIWQQTGGRITHFVSSMGTTGTITGVSRFMREQSKPVTIVGLQPEEGSSIPGIRRWPTEYLPGIFNASLVDEVLDIHQRDAENTMRELAVREGIFCGVSSGGAVAGALRVAKANPDAVVVAIICDRGDRYLSTGVFGEEHFSQGAGI	6.17 ± 1.7	4.5 ± 0.098	4.55 ± 0.61	4.81 ± 0.087	4.19 ± 0.058	2.95 ± 0.34	6.01 ± 0.21	10.2 ± 0.28	4.66 ± 0.086	7.44 ± 0.39	5.64 ± 0.13	11.6 ± 0.56
MKTKVAAIYGKRDVRLRVFELPEITDNELLVSVISDSVCLSTWKAALLGSEHKRVPDDLENHPVITGHECAGVIVEVGKNLTGKYKKGQRFVLQPAMGLPSGYSAGYSYEYFGGNATYMIIPEIAINLGCVLPYHGSYFAAASLAEPMCCIIGAYHANYHTTQYVYEHRMGVKPGGNIALLACAGPMGIGAIDYAINGGIQPSRVVVVDIDDKRLAQVQKLLPVELAASKGIELVYVNTKGMSDPVQMLRALTGDAGFDDIFVYAAVPAVVEMADELLAEDGCLNFFAGPTDKNFKVPFNFYNVHYNSTHVVGTSGGSTDDMKEAIALSATGQLQPSFMVTHIGGLDAVPETVLNLPDIPGGKKLIYNGVTMPLTAIADFAEKGKTDPLFKELARLVEETHGIWNEQAEKYLLAQFGVDIGEAAQ	6.04 ± 0.11											
MAIRKRFIAGAKCPACQAQDSMAMWRENNIDIVECVKCGHQMREADKEARDHVRKDEQVIGIFHPD [P0ADW8]	4.91 ± 0.73	3.52 ± 0.46			2.16 ± 0.17	1.8 ± 0.47	4.08 ± 1.4	2.51		2.52	3.48	7.36 ± 1.6
MTRLTLALDVMGGDFGPSVTVPAALQALNSNSQLTLLLVGNSDAITPLLAKADFEQRSRLQIIPAQSVIASDARPSQAIRASRGSSMRVALELVKEGRAQACVSAGNTGALMGLAKLLLKPLEGIERPALVTVLPHQQKGKTVVLDLGANVDCDSTMLVQFAIMGSVLAEEVVEIPNPRVALLNIGEEEVKGLDSIRDASAVLKTIPSINYIGYLEANELLTGKTDVLVCDGFTGNVTLKTMEGVVRMFLSLLKSQGEGKKRSWWLLLLKRWLQKSLTRRFSHLNPDQYNGACLLGLRGTVIKSHGAANQRAFAVAIEQAVQAVQRQVPQRIAARLESVYPAGFELLDGGKSGTLR		6.24 ± 1.2	5.82 ± 0.97		5.36 ± 0.15	2.67 ± 0.076	5.52 ± 0.33	10.8 ± 1.9	5.32 ± 0.21	9.51 ± 0.53	5.34 ± 0.72	8.85 ± 1.9
MKIKAVGAYSAKQPLEPMDITRREPGPNDVKIEIAYCGVCHSDLHQVRSEWAGTVYPCVPGHEIVGRVVAVGDQVEKYAPGDLVGVGCIVDSCKHCEECEDGLENYCDHMTGTYNSPTPDEPGHTLGGYSQQIVVHERYVLRIRHPQEQLAAVAPLLCAGITTYSPLRHWQAGPGKKVGVVGIGGLGHMGIKLAHAMGAHVVAFTTSEAKREAAKALGADEVVNSRNADEMAAHLKSFDFILNTVAAPHNLDDFTTLLKRDGTMTLVGAPATPHKSPEVFNLIMKRRAIAGSMIGGIPETQEMLDFCAEHGIVADIEMIRADQINEAYERMLRGDVKYRFVIDNRTLTD	4.84 ± 0.2	4.8 ± 0.18	4.92 ± 0.16	5.05 ± 0.38	4.66 ± 0.61	3.225 ± 0.021	5.86 ± 0.58	11 ± 0.91	5.04 ± 0.17	8.89 ± 0.21	6.23 ± 0.59	12 ± 0.78
MKKFSGIIPPVSSTFHRDGTLDKKAMREVADFLINKGVDGLFYLGTGGEFSQMNTAQRMALAEEAVTIVDGRVPVLIGVGSPSTDEAVKLAQHAQAYGADGIVAINPYYWKVAPRNLDDYYQQIARSVTLPVILYNFPDLTGQDLTPETVTRLALQNENIVGIKDTIDSVGHLRTMINTVKSVRPSFSVFCGYDDHLLNTMLLGGDGAITASANFAPELSVGIYRAWREGDLATAATLNKKLLQLPAIYALETPFVSLIKYSMQCVGLPVETYCLPPILEASEEAKDKVHVLLTAQGILPV	4.88 ± 0.66	2.73 ± 0.14			3.17 ± 1.4	2.83 ± 0.1	4.76 ± 0.24	9.39 ± 0.15	3.68			11.11 ± 0.052
MSVVISDAWRQRFGGTARLYGEKALQLFADAHICVVGIGGVGSWAAEALARTGIGAITLIDMDDVCVTNTNRQIHALRDNVGLAKAEVMAERIRQINPECRVTVVDDFVTPDNVAQYMSVGYSYVIDAIDSVRPKAALIAYCRRNKIPLVTTGGAGGQIDPTQIQVTDLAKTIQDPLAAKLRERLKSDFGVVKNSKGKLGVDCVFSTEALVYPQSDGTVCAMKATAEGPKRMDCASGFGAATMVTATFGFVAVSHALKKMMAKAARQG	4.94 ± 0.44		3.85 ± 1.2		5.05 ± 0.58	3.36 ± 0.59	5.77 ± 0.26	9.6 ± 0.78	4.87 ± 0.32	6.86 ± 1.1	5.2 ± 0.15	11.79 ± 0.028
